In data set [1] the target is APEH-3Ss, acylpeptide hydrolase from Sulfolobus solfataricus coded by the gene sso2693 (Sulfolobus solfataricus P2). Put plainly: SEC; Superose 12 3.2/30; enzyme treated with 0.5 M GnHCl, column equilibrated with Tris-HCl 0.05 M pH 7.5 containing 0.5 M GnHCl. (In gel filtration, larger molecules generally elute earlier.)
The target is the same in data set [2]. Put plainly: SEC; Superose 12 3.2/30; enzyme treated with 0.5 M GnHCl, then dialysed extensively against Tris-HCl 0.05 M pH 7.5 before gel filtration.
Data set [3] shares this target. Put plainly: SEC; gel filtration of the native purified enzyme on two columns (Superdex 200 HR 10/30; Superose 12 PC 3.2/30), calibrated with BioRad gel filtration standards.
The target is the same in data set [4].
Substrate in data set [5]: CC(=O)N[C@@H](C)C(=O)Nc1ccc([N+](=O)[O-])cc1
Briefly: purified protein. The format is biochemical, Saccharolobus solfataricus. The settings on record: 25 mM Tris-HCl pH 7.5, 90°C.

Substrate in data set [6]: CC(=O)N[C@@H](CC(C)C)C(=O)Nc1ccc([N+](=O)[O-])cc1
Briefly: purified protein. It is filed as biochemical, Saccharolobus solfataricus. The settings on record: 25 mM Tris-HCl pH 7.5, 90°C.

Substrate in data set [7]: CC(=O)N[C@@H](Cc1ccccc1)C(=O)Nc1ccc([N+](=O)[O-])cc1
Put plainly: purified protein. The format is biochemical, Saccharolobus solfataricus. Conditions: 25 mM Tris-HCl pH 7.5, 90°C.

We go through three molecules from publication PMC3360023, “Identification and Characterisation of a Novel Acylpeptide Hydrolase from Sulfolobus Solfataricus: Structural and Functional Insights” (PLoS ONE, 2012).

One may read the stoichiometry N as a count of units in the complex or per binding partner. “APEH-3Ss, acylpeptide hydrolase from Sulfolobus solfataricus coded by the gene sso2693 (enzyme)”: the stoichiometry N came out at 2 in data set [1], 3 in data set [2] and 3 in data set [3].

B1: SsCEI (Sulfolobus solfataricus chymotrypsin-elastase inhibitor) (natural protein)
chain: MNSESIYSMRVVSSAFKNEDFIPIKYTCDGQDLSPELEWDLVTNAKSYAIIVEDPDAPGGTFIHWVIYNITTNRLPEGVPRLYKSQYGVQGVNDFGNIGYNGPCPPKTHPPHRYYFYVYAIDTILLEIKNINADKLKSLMEGHGIERGFVMGKYKRK
Take B1: in data set [4], the IC50 of inhibition of APEH-3Ss activity on Ac-L-pNA (0.2 mM); protease pre-incubated with increasing SsCEI for 30 min at 80°C, Tris-HCl 50 mM pH 7.5 is 0.008 µM and the IC50 of inhibition of APEH-3Ss activity on Suc-GGF-pNA (0.2 mM); protease pre-incubated with increasing SsCEI for 30 min at 80°C, Tris-HCl 50 mM pH 7.5 is 0.02 µM.

B2: APEH-3Ss (Saccharolobus solfataricus P2) (protein)
chain: MKPEDYYYSIKLVPEITIENGKLFHVETWIEEDKYKSSIYLNLKRITFQGNESSPKFNNDKLYFIRNEEAKSSLLEAQLYGEPKVIFTFSGKISKYEFHNKGILVIAEENTDKTLPFRAEKIKYRFDSRGLLRARQSLYLFDGKDLRRLVTGNFDVTDLATNGNRVVISATKDGDDYGLGNLYEVNIETGELNRITKEDGTVQAIAMNSEGKIAFLGHRKGLTPWASLEIMLPEEGKSYMCGKTCGNKVLTDLFDGVKDRIVFEKDLILSLGQEGGTSHIYQISDNKVDKVTSGNIMVRGFDYSNSELAYFYSTPEKPVILKYRDIEYDPNPNIKGYTPERITVNSNGVEVEGWSIIKDPNAPTILFIHGGPHMAYGYGYFIEFQFFVDNGFNVIYANPRGSQGYGEEFAKACVGDWGGKDFEDLMNFVNTVKERYSLKGKFGITGGSYGGFMTNWIVTKTSMFSAAISERSISNLVSMCGTSDIGFWFNAIESGIADPWSTEGIEKLMKMSPIYYVKNVKTPTMLIHGEEDYRCPIEQAEQFYVALKMQGVPTTLVRYQGDSHEHARRGKPKNMIDRLKTKLEWFSKYLL
notes: native enzyme purified from S. solfataricus P2 cells; full length 591 aa, not processed; N-terminus MKPEDYYYSI; 64 kDa by SDS-PAGE; homotrimer 192 kDa
One may read the Km as the substrate concentration at which the rate is half of its maximum. By kcat is commonly meant the maximal rate divided by the concentration of active sites. Broadly, the kcat/Km is the second-order rate constant that governs catalysis at low substrate concentration. On to B2, for which, in the data set “purified protein [5]”, the Km was 800 ± 60 µM, the kcat was 14 ± 0.1 s⁻¹ and the catalytic efficiency (kcat/Km) turned out to be 17500 ± 100 M⁻¹ s⁻¹. Also, in the data set “purified protein [6]”, the Km worked out at 600 ± 50 µM, the kcat came out at 18 ± 0.1 s⁻¹ and the kcat/Km was 32700 ± 400 M⁻¹ s⁻¹. In the data set “purified protein [7]”, the Michaelis constant (Km) was 40 µM, the kcat came to 0.08 ± 0.005 s⁻¹ and the kcat/Km was determined as 2000 ± 10 M⁻¹ s⁻¹.
